Source: patent publication US20260049134A1 (UNIVERSITY OF FLORIDA RESEARCH FOUNDATION, published 2026)

Legend:
[1] = target: T1, PTPRG, endogenous in H929 multiple myeloma cells (human, UniProt P23470 20-1445); test: flow cytometry, H929 + CADM1 siRNA; None 0.89
T1 construct: Native protein on H929 cells (flow cytometry, siRNA knockdown) and in H929 lysates (IP/MS); also called phosphatase receptor type γ

[2] = target: T1, PTPRG, endogenous in H929 multiple …; test: flow cytometry, H929 + PTPRG siRNA (target knocked down); None 490
[3] = target: T2, GARS-His (Sino Biological) (human, UniProt P41250 37-739, limits assumed); test: ELISA on coated GARS-His
T2 construct: Bought; also called GARS1; glycyl-tRNA synthetase; not shown: His tag of the bought protein
T2 sequence: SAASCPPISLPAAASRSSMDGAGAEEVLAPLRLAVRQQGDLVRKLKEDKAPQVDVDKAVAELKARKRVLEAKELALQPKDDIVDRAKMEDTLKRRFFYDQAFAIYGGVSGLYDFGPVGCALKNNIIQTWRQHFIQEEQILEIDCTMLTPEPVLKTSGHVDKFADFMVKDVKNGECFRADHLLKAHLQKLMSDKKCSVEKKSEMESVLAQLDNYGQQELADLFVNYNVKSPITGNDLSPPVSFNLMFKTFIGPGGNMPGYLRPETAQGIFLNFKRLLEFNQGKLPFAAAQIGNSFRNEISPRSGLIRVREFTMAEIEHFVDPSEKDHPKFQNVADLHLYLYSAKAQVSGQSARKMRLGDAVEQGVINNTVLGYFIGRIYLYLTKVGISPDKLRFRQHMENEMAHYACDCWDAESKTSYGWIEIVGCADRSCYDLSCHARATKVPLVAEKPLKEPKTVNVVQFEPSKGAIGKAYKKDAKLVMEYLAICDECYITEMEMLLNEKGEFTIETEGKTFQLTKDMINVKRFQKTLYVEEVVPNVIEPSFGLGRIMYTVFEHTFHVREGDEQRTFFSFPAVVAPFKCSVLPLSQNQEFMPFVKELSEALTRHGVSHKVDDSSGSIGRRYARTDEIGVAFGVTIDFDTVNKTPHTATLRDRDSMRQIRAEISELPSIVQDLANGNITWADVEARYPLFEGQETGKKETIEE
Procedure: (§1) Recombinant purified ECDs (50-150 ng) of each putative target protein were coated, incubated with 150 ng of the indicated primary antibody, and binding was detected using a peroxidase-conjugated anti-human Fab secondary antibody. Heatmap represents averages of technical triplicates. (8B) Target validation via siRNA knockdown. H929 cells were transfected with siRNA pools targeting the putative antibody targets ICAM1, CADM1, and PTPRG. Cells were then subjected to cognate IgG binding analysis via flow cytometry. (NT, non-targeting siRNA).
(§2) ELISA ELISA was conducted as described previously. Briefly, 50-150 ng of antigen was coated overnight in half-area 96-well plates at 4° C., blocked with 3% BSA at 37° C. for 1 h, and 150 ng of chimeric rabbit/human IgG1 was added, incubating for 2 h at 37° C. […] After incubating at 37° C. for 15 min-1 h (depending on intensity of controls), data were acquired using a SpectraMax M5 plate reader (Molecular Devices).

[4] = target: T3, CADM1-His (Acro Biosystems) (human, UniProt Q9BY67 45-374); test: ELISA on coated protein
T3 construct: Bought; also called CADM1/IGSF4A; not shown: His tag of the bought protein
T3 sequence: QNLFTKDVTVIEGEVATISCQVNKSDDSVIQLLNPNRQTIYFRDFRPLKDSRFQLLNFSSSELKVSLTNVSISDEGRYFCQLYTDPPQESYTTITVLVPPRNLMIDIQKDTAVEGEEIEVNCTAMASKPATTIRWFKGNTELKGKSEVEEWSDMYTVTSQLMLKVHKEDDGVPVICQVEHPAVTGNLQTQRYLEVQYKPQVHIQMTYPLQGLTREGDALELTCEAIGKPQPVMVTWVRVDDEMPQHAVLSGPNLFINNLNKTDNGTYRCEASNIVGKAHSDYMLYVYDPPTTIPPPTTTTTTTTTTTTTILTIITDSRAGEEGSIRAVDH

[5] = target: T4, PTPRG-Fc (ECD of human PTPRG, aa 20-736, fused to human Fc gamma 1) (human, UniProt P23470 20-736); test: ELISA on coated protein
T4 construct: Made in-house in Expi293 cells; Used in ELISA and SPR; also called recombinant PTPRG-Fc; PTRPG; not shown: human IgG1 Fc (Fc gamma 1) after the hinge
T4 sequence: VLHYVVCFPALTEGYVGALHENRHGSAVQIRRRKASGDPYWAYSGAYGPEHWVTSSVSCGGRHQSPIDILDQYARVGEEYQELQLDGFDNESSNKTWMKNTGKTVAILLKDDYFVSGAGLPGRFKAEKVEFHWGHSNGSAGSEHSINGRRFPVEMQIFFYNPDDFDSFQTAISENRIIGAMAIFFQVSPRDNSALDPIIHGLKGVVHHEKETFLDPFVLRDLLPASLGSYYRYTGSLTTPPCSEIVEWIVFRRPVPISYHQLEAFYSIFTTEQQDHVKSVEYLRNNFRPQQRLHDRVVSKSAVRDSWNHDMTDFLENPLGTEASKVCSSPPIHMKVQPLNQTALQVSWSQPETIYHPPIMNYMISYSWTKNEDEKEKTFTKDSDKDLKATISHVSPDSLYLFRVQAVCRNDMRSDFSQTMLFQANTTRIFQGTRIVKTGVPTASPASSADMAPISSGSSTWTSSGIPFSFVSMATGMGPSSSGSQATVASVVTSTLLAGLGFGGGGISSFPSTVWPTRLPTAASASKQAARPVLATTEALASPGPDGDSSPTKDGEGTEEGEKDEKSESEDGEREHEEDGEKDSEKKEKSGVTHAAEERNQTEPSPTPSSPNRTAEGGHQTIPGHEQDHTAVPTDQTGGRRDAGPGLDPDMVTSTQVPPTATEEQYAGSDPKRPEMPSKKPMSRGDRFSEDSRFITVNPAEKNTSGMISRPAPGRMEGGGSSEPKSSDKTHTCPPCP

[6] = target: T4, PTPRG-Fc (ECD of human PTPRG, aa …); test: ELISA on coated PTPRG-Fc
Procedure: as §1, §2

T1 sequence (P23470 20-1445 limits assumed): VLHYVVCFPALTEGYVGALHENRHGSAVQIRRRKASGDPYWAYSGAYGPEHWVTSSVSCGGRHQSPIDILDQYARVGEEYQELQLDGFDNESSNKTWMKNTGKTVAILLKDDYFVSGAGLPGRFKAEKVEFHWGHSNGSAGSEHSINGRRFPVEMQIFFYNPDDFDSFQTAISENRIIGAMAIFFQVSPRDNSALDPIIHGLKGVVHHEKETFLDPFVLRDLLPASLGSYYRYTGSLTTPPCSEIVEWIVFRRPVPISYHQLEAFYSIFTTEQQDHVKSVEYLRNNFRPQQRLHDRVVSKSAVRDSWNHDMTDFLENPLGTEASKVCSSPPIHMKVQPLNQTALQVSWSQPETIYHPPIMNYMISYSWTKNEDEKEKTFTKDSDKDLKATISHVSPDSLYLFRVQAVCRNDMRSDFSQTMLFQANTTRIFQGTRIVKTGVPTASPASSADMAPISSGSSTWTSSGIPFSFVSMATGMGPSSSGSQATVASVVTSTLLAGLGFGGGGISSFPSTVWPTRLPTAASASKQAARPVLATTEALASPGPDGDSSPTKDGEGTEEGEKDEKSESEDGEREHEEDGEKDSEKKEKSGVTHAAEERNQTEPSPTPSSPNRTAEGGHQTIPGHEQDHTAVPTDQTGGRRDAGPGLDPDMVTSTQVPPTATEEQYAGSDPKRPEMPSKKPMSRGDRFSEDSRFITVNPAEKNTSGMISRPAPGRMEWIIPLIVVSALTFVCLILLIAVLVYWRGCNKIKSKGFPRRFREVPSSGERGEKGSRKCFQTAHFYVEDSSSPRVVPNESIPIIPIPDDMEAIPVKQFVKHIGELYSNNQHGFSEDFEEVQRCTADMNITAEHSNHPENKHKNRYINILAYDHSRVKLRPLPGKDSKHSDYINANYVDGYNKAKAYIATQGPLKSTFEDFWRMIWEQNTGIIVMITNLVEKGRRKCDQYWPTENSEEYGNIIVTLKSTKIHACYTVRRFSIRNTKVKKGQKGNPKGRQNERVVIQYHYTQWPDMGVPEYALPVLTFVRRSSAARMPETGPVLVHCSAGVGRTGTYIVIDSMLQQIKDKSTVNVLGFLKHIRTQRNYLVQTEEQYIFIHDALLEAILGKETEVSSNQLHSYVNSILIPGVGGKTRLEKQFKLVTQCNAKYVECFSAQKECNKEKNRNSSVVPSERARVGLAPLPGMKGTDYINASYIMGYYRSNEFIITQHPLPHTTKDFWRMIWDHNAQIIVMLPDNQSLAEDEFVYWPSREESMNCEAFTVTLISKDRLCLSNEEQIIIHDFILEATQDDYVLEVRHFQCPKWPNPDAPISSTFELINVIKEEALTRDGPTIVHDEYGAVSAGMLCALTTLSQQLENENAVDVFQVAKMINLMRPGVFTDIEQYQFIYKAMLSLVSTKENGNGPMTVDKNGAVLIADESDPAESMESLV

B1: HW-42 chimeric rabbit-human IgG1 LA/LA/PG (antibody, V domains shown)
VH: QSVKESEGGLFKPADTLTLTCTVSGFSLSSNEISWVRQAPGEGLEYIGIIDTGGRAYYAVWARSRSTITRNTNLNTVTLKMTSLTAADTATYFCARGGVDTEWYAFSSWGPGTLVTVPS
VL: SFVLTQPASVQVNLGQTVSLTCTADTLSRRYASWYQQKPGQAPVLLIFRDTSRPSGVPDRFSGSSSGDTATLTISGAQAGDEADYYCATSDGSGSNYQYVFGGGTQLTVTG
notes: Fc-silenced (L234A/L235A/P329G) IgG1, lambda; Alexa Fluor 647-labeled in single-step flow cytometry; Cluster C-1
Q: With B1 as the binder, how does the “Cells stained (%)” value [1] read?
A: 97.3%

Q: What about the “mAb binding (MFI)” value [2] of the same binder?
A: 649

Q: Does B1 bind [3]?
A: no binding (tested: 150 ng IgG1 per well)

B2: HW-1 chimeric rabbit-human IgG1 LA/LA/PG (antibody, V domains shown)
VH: QSLEESGGGLFKPTDTLTLTCTASGFSLGSSYAISWVRQAPGKELEWIGTIDSGRAYYARWAKSRSTITRNTNENTVTLKMTSLTAADTATYFCARDLIPTYSQDIWGPGTLVTISS
VL: SFVLTQPASVQVNLGQTVSLTCTADTLSRRYASWYQQKPGQAPVLLIYRDTSRPSGVPDRFSGSSSGNTATLTISGAQAGDEADYYCATSDGSGNSYQYVFGGGTQLTVTS
notes: Fc-silenced (L234A/L235A/P329G) IgG1, lambda; Alexa Fluor 647-labeled in single-step flow cytometry; Prototype of cluster C-1
Q: Does B2 bind [4]?
A: no binding (tested: 150 ng IgG1 per well)

Q: What about the “Cells stained (%)” value [1] of the same binder?
A: 99.3%

Q: What about the “mAb binding (MFI)” value [2] of the same binder?
A: 1140

B3: HW-17 chimeric rabbit-human IgG1 LA/LA/PG (antibody, V domains shown)
VH: QSLGESRGRLVTPDETLTLTCTVSGIDLSSNAMSWVRQAPGEGLEWIGTINTGGRAYYASWAKGRFTISRTSTTVDLKMTSLTTEDTATYFCARERYSDGRAYDIWGPGTLVTISS
VL: SFVLTQPASVQVNLGQTVSLTCTADTLSRRYASWYQQKPGQAPVLLIYTDSNRPSGIPDRFSGSSSGNTATLTISGAQAGDEADYYCATDDGSGSIYQYVFGGGTQLTVTG
notes: as for B1
Q: Does B3 bind [4]?
A: no binding (tested: 150 ng IgG1 per well)

Q: What about the “Cells stained (%)” value [1] of the same binder?
A: 99.3%

Q: What about the “mAb binding (MFI)” value [2] of the same binder?
A: 1160

B4: HW-8 chimeric rabbit-human IgG1 LA/LA/PG (antibody, V domains shown)
VH: QSLEESGGRLVTPGTPLTLTCTVSGFSLSSYAMSWVRQAPGKGLEWIGAISTGGSTTYASWAKGRFTISKTSSTTVDLKMTSLTTEDTATYFCVRHFRLWGPGTLVTISS
VL: QVLTQTPSSVSAAVGGTVTIKCQASQSIGSALAWFQQKPGQRPKLLIYRASNLASGVPSRFKGSGSGTEFALTISGVQREDAATYYCLGGAAAVWAFGAGTNVEIKR
notes: Fc-silenced (L234A/L235A/P329G) IgG1, kappa; Alexa Fluor 647-labeled in single-step flow cytometry; Cluster C-45
Q: Does B4 bind [4]?
A: no binding (tested: 150 ng IgG1 per well)

Q: Does B4 bind [5]?
A: no binding (tested: 150 ng IgG1 per well)

B5: HW-28 chimeric rabbit-human IgG1 LA/LA/PG (antibody, V domains shown)
VH: QKQLVESGGRLVTPGTPLTLTCTASGFSLSSNAMSWVRQAPGEGLQWIGTISSGGSTYYASWAKGRFTISKTSTTVTLKMTSLTTEDTATYFCARGADLHRLWGPGTLVTVSS
VL: SFVLTQPASVQVNLGQTVSLTCTGKPLSRSFASWYQQKPGQAPVLVIYRDTSRPSGVPDRFSGSSSGNTATLTISGAQAGDEADYYCATSDGSGSSYQYVFGGGTQLTVTG
notes: Fc-silenced (L234A/L235A/P329G) IgG1, lambda; Alexa Fluor 647-labeled in single-step flow cytometry; Cluster C-45
Q: Does B5 bind [6]?
A: no binding (tested: 150 ng IgG1 per well)

B6: HW-56 chimeric rabbit-human IgG1 LA/LA/PG (antibody, V domains shown)
VH: QSVKESEGGLFKPTDTLTLTCTASGFTVSTNAVTWVRQAPGNGLEYIGTIGRSGSAYFASWAKRRSTLTRDINLNTVTLKMTSLTAADTATYFCVRGSPGYRTAISIWGPGTLVTISS
VL: AVMTQTPSSTSAAVEGTVTINCQASQSISNRLSWFQQKPGQPPKLLIYQASTLASGVPSRFKGSGSGTEFTLTISGVQREDAATYYCLGSYSSSDASFGGGTKLEIKR
notes: as for B4
Q: Does B6 bind [6]?
A: no binding (tested: 150 ng IgG1 per well)

B7: HW-81 chimeric rabbit-human IgG1 LA/LA/PG (antibody, V domains shown)
VH: QKQLVESGGGLVTPGGTLTLTCTVSGFSLSSNGVSWVRQAPGKGLEYIGLIRSIGSTYYATWAKGRFTISKTSTTVDLKITSPTTEDTATYFCARGGYRNGFKLWGPGTLVTVSS
VL: QPVLTQSPSVSAALGASAKLTCTLSSAHKTYYIEWYQQQHPGKAPRYLMQLQSDGSYTKGTGVPDRFSGSSSGADRYLIISSVQAEDEADYICGVIDSAVYVFGGGTQLTVTG
notes: as for B5
Q: Does B7 bind [6]?
A: no binding (tested: 150 ng IgG1 per well)

B8: HW-97 chimeric rabbit-human IgG1 LA/LA/PG (antibody, V domains shown)
VH: QKQLVESGGRLVTPGTPLTLTCTVTGIDLSSHGMSWVRQAPGKGLEWIGVIYPSGSTWYASWARGRFTISKTSTTVDLKMTSLTTEDTATHFCARGDVGGADNNIWGPGTLVTVSS
VL: SFVLTQPASVQVDLGQTVSLTCTAETLSRSYASWYQQKPGQAPVLLIYRDTSRPSGVPDRFSGSSSGNTATLTISGAQAGDEADYYCATSDGSGSSYQYVFGGGTQLTVTG
notes: Fc-silenced (L234A/L235A/P329G) IgG1, lambda; Alexa Fluor 647-labeled in single-step flow cytometry; Prototype of cluster C-97
Q: Does B8 bind [5]?
A: no binding (tested: 150 ng IgG1 per well)

B9: HW-101 chimeric rabbit-human IgG1 LA/LA/PG (antibody, V domains shown)
VH: QEQLVESGGRLVTPGTPLTLTCKASGFSLGKYDMSWVRQAPGKGLEWIGTIYAGSGSTWYASWAKGRFTISKTSTTVDLKMTSLTTEDTATYFCARDFLGVNSIWGPGTLVTISS
VL: SFVLTQPASVQVNLGQTVSLTCTADTLSRSYASWYQQKPDQAPVLLIHRDTSRPSGVPDRFSGSNSGNTATLTISGAQAGDEADYYCATSDGSGSNFHFVFGGGTQLTVTG
notes: Fc-silenced (L234A/L235A/P329G) IgG1, lambda; Alexa Fluor 647-labeled in single-step flow cytometry; Cluster C-97
Q: Does B9 bind [5]?
A: no binding (tested: 150 ng IgG1 per well)

B10: HW-113 chimeric rabbit-human IgG1 LA/LA/PG (antibody, V domains shown)
VH: QKQLVESGGGLVQPGGSLTLTCTVSGFSLNKYYMGWFRQAPGKGLEWIGVISRSGDTYYSSWAKGRFTISKASTTVDLRITSPTTEDTATYFCARDASSPGFHGDRLDLWGQGTLVTVSS
VL: SFVLTQPASVQVNLGQTVSLTCTADTLSRSYASWYQQKPGQAPVLLIYRDTSRPSGVPDRFSGSSSGNTATLTISGAQAGDEADYYCATSDGIGSNYLWVFGGGTQLTVTG
notes: Fc-silenced (L234A/L235A/P329G) IgG1, lambda; Alexa Fluor 647-labeled in single-step flow cytometry
Q: Does B10 bind [4]?
A: no binding (tested: 150 ng IgG1 per well)

Q: Does B10 bind [5]?
A: no binding (tested: 150 ng IgG1 per well)

B11: TH9-0022 (antibody, human IgG1, kappa, L234A L235A, V domains shown)
VH: QSLEESGGRLVTPGTPLTLTCTVSGFSLSSYAMNWVRQAPGKGLEWIGIINSYGSTYYASWAKGRFTISKTSTTVDLKITSPTTEDTATYFCARVTYDSYGYGYAPYGMDLWGPGTLVTVSS
VL: LVMTQTPSSTSNAVGGTVTIKCQASQSIGNVLAWYQQKPGQPPKLLIYAASTLASGVPSRVGGSRSGTEYTLTISGVQREDAATYYCLGSDSDSDIAFGGGTELEILR
notes: also called TH9-022; negative control IgG1
Q: Does B11 bind [4]?
A: no binding (tested: 150 ng IgG1 per well)

Q: Does B11 bind [5]?
A: no binding (tested: 150 ng IgG1 per well)
